Source: patent US20160264649A1

Key:
Assay in all cases: cell-based or functional assay
[1] = biological target: HIV-1 MGRM-A-011 Env (HIV-1)
[2] = biological target: HIV-1 MGRM-A-004 Env (HIV-1)
[3] = biological target: HIV-1 92WR009 Env (HIV-1)
[4] = biological target: HIV-1 93WR029 Env (HIV-1)
[5] = biological target: HIV-1 MGRM-A-009 Env (HIV-1)
[6] = biological target: HIV-1 MGRM-A-005 Env (HIV-1)
[7] = biological target: HIV-1 92UG037 Env (HIV-1)
[8] = biological target: HIV-1 MGRM-AE-008 Env (HIV-1)
[9] = biological target: HIV-1 MGRM-A-003 Env (HIV-1)
[10] = biological target: HIV-1 MGRM-AE-003 Env (HIV-1)
[11] = biological target: HIV-1 MGRM-AE-001 Env (HIV-1)
[12] = biological target: HIV-1 MGRM-AG-002 Env (HIV-1)
[13] = biological target: HIV-1 94UG103 Env (HIV-1)
[14] = biological target: HIV-1 MGRM-AG-009 Env (HIV-1)
[15] = biological target: HIV-1 93UG077 Env (HIV-1)
[16] = biological target: HIV-1 MGRM-AE-004 Env (HIV-1)
[17] = biological target: HIV-1 MGRM-A-013 Env (HIV-1)
[18] = biological target: HIV-1 MGRM-AG-012 Env (HIV-1)
[19] = biological target: HIV-1 94KE105 Env (HIV-1)
[20] = biological target: HIV-1 MGRM-AG-011 Env (HIV-1)
[21] = biological target: HIV-1 92WR021 Env (HIV-1)
[22] = biological target: HIV-1 92RW008 Env (HIV-1)
[23] = biological target: HIV-1 MGRM-A-007 Env (HIV-1)
[24] = biological target: HIV-1 MGRM-A-006 Env (HIV-1)
[25] = biological target: HIV-1 92WR020 Env (HIV-1)
[26] = biological target: HIV-1 MGRM-A-012 Env (HIV-1)
[27] = biological target: HIV-1 MGRM-A-010 Env (HIV-1)
[28] = biological target: HIV-1 MGRM-AE-006 Env (HIV-1)
[29] = biological target: HIV-1 MGRM-AE-002 Env (HIV-1)
[30] = biological target: HIV-1 MGRM-AE-007 Env (HIV-1)
[31] = biological target: HIV-1 MGRM-A-008 Env (HIV-1)
[32] = biological target: HIV-1 92WR024 Env (HIV-1)
[33] = biological target: HIV-1 MGRM-A-014 Env (HIV-1)
HIV-1 VLGCA1 Env (HIV-1) = biological target: HIV-1 VLGCA1 Env (HIV-1)
HIV-1 CMU02 Env (HIV-1) = biological target: HIV-1 CMU02 Env (HIV-1)
[34] = biological target: HIV-1 92UG031 Env (HIV-1)
[35] = biological target: HIV-1 92TH021 Env (HIV-1)
[36] = biological target: HIV-1 MGRM-AE-005 Env (HIV-1)
[37] = biological target: HIV-1 MGRM-A-001 Env (HIV-1)
[38] = biological target: HIV-1 MGRM-AG-005 Env (HIV-1)
[39] = biological target: HIV-1 MGRM-AG-008 Env (HIV-1)
[40] = biological target: HIV-1 MGRM-AG-013 Env (HIV-1)
[41] = biological target: HIV-1 MGRM-A-002 Env (HIV-1)
[42] = biological target: HIV-1 MGRM-AG-006 Env (HIV-1)
[43] = biological target: HIV-1 MGRM-AG-001 Env (HIV-1)
[44] = biological target: HIV-1 MGRM-AG-003 Env (HIV-1)
[45] = biological target: HIV-1 92WR026 Env (HIV-1)

## 4838_L06 (PGT-121) (antibody)
[1]
  IC50: > 50 mg/L
[2]
  IC50: > 50 mg/L
[3]
  IC50: 1.74 mg/L
[4]
  IC50: > 50 mg/L
[5]
  IC50: 0.006 mg/L
[6]
  IC50: > 50 mg/L
[7]
  IC50: 0.031 mg/L
[8]
  IC50: > 50 mg/L
[9]
  IC50: 0.435 mg/L
[10]
  IC50: > 50 mg/L
[11]
  IC50: > 50 mg/L
[12]
  IC50: > 50 mg/L
[13]
  IC50: 2.52 mg/L
[14]
  IC50: 0.08 mg/L
[15]
  IC50: 0.019 mg/L
[16]
  IC50: > 50 mg/L
[17]
  IC50: 0.387 mg/L
[18]
  IC50: > 50 mg/L
[19]
  IC50: 0.029 mg/L
[20]
  IC50: > 50 mg/L
[21]
  IC50: 0.009 mg/L
[22]
  IC50: 0.003 mg/L
[23]
  IC50: > 50 mg/L
[24]
  IC50: 0.396 mg/L
[25]
  IC50: 0.004 mg/L
[26]
  IC50: 0.092 mg/L
[27]
  IC50: 2.44 mg/L
[28]
  IC50: > 50 mg/L
[29]
  IC50: > 50 mg/L
[30]
  IC50: > 50 mg/L
[31]
  IC50: > 50 mg/L
[32]
  IC50: > 50 mg/L
[33]
  IC50: 0.003 mg/L
HIV-1 VLGCA1 Env (HIV-1)
  IC50: > 50 mg/L
HIV-1 CMU02 Env (HIV-1)
  IC50: > 50 mg/L
[34]
  IC50: > 50 mg/L
[35]
  IC50: > 50 mg/L
[36]
  IC50: > 50 mg/L
[37]
  IC50: > 50 mg/L

## 4858_P08 (PGT-123) (antibody)
[1]
  IC50: > 50 mg/L
[2]
  IC50: > 50 mg/L
[38]
  IC50: 0.149 mg/L
[3]
  IC50: 15.7 mg/L
[4]
  IC50: > 50 mg/L
[5]
  IC50: 0.004 mg/L
[6]
  IC50: > 50 mg/L
[7]
  IC50: 0.023 mg/L
[39]
  IC50: 19.2 mg/L
[40]
  IC50: 3.37 mg/L
[8]
  IC50: > 50 mg/L
[9]
  IC50: 0.495 mg/L
[10]
  IC50: > 50 mg/L
[11]
  IC50: > 50 mg/L
[12]
  IC50: > 50 mg/L
[13]
  IC50: 0.678 mg/L
[14]
  IC50: 0.073 mg/L
[15]
  IC50: 0.028 mg/L
[16]
  IC50: > 50 mg/L
[17]
  IC50: 0.565 mg/L
[18]
  IC50: > 50 mg/L
[19]
  IC50: 0.024 mg/L
[41]
  IC50: 0.011 mg/L
[20]
  IC50: > 50 mg/L
[21]
  IC50: 0.005 mg/L
[22]
  IC50: 0.003 mg/L
[23]
  IC50: > 50 mg/L
[24]
  IC50: > 50 mg/L
[25]
  IC50: 0.002 mg/L
[26]
  IC50: 0.192 mg/L
[27]
  IC50: 0.705 mg/L
[28]
  IC50: > 50 mg/L
[29]
  IC50: > 50 mg/L
[30]
  IC50: > 50 mg/L
[31]
  IC50: > 50 mg/L
[42]
  IC50: 0.014 mg/L
[32]
  IC50: > 50 mg/L
[43]
  IC50: 2.51 mg/L
[33]
  IC50: 0.003 mg/L
[44]
  IC50: > 50 mg/L
HIV-1 VLGCA1 Env (HIV-1)
  IC50: > 50 mg/L
[45]
  IC50: 0.012 mg/L
HIV-1 CMU02 Env (HIV-1)
  IC50: > 50 mg/L
[34]
  IC50: > 50 mg/L
[35]
  IC50: > 50 mg/L
[36]
  IC50: > 50 mg/L
[37]
  IC50: > 50 mg/L

## 4877_D15 (PGT-122) (antibody)
[1]
  IC50: > 50 mg/L
[2]
  IC50: > 50 mg/L
[38]
  IC50: 33.9 mg/L
[3]
  IC50: 42.4 mg/L
[4]
  IC50: > 50 mg/L
[5]
  IC50: 0.012 mg/L
[6]
  IC50: > 50 mg/L
[7]
  IC50: 0.068 mg/L
[39]
  IC50: > 50 mg/L
[40]
  IC50: 0.521 mg/L
[8]
  IC50: > 50 mg/L
[9]
  IC50: 3.79 mg/L
[10]
  IC50: > 50 mg/L
[11]
  IC50: > 50 mg/L
[12]
  IC50: > 50 mg/L
[13]
  IC50: 2.04 mg/L
[14]
  IC50: 0.128 mg/L
[15]
  IC50: 0.084 mg/L
[16]
  IC50: > 50 mg/L
[17]
  IC50: 2.47 mg/L
[18]
  IC50: > 50 mg/L
[19]
  IC50: 0.056 mg/L
[41]
  IC50: 0.017 mg/L
[20]
  IC50: > 50 mg/L
[21]
  IC50: 0.021 mg/L
[22]
  IC50: 0.003 mg/L
[23]
  IC50: > 50 mg/L
[24]
  IC50: > 50 mg/L
[25]
  IC50: 0.009 mg/L
[26]
  IC50: 0.257 mg/L
[27]
  IC50: 2.51 mg/L
[28]
  IC50: > 50 mg/L
[29]
  IC50: > 50 mg/L
[30]
  IC50: > 50 mg/L
[31]
  IC50: > 50 mg/L
[42]
  IC50: 0.028 mg/L
[32]
  IC50: > 50 mg/L
[43]
  IC50: 14.5 mg/L
[33]
  IC50: 0.007 mg/L
[44]
  IC50: 43.7 mg/L
HIV-1 VLGCA1 Env (HIV-1)
  IC50: > 50 mg/L
[45]
  IC50: 0.036 mg/L
HIV-1 CMU02 Env (HIV-1)
  IC50: > 50 mg/L
[34]
  IC50: > 50 mg/L
[35]
  IC50: > 50 mg/L
[36]
  IC50: > 50 mg/L
[37]
  IC50: > 50 mg/L
